Columns and labels:
BhArgR (ArgR, Bh2777) = molecular target: T1, BhArgR (ArgR, Bh2777) (Halalkalibacterium halodurans, UniProt Q9K973); experiment: SEC-MALS (trimer to hexamer shift); EMSA; conditions: 10 mM L-arginine; SEC-MALS: 20 mM Tris-HCl pH 8.0, 200 mM NaCl, 2 mM MgCl2, 1 mM DTT; EMSA with argG ARG box DNA at 4 C; corepressor; indirect evidence of binding
T1 construct: full length, 149 residues; hexa-histidine tagged in SEC-MALS; trimer (57 kDa) without L-arginine, hexamer (114 kDa) with L-arginine
T1 sequence (Q9K973 1-149): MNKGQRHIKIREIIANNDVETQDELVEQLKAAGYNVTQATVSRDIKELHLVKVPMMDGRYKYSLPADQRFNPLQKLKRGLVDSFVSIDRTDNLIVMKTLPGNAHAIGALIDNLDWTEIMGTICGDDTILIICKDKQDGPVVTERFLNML

[1] = molecular target: T2, BhArgR (Bacillus halodurans) (UniProt Q9K973); experiment: EMSA; conditions: 50 mM Tris-HCl pH 7.5, 200 mM NaCl, 10 mM MgCl2, 10 mM CaCl2, 10% glycerol; on ice 40 min; 6% native PAGE in TBE pH 8.8 +/- 10 mM L-arginine, 4 C
T2 sequence: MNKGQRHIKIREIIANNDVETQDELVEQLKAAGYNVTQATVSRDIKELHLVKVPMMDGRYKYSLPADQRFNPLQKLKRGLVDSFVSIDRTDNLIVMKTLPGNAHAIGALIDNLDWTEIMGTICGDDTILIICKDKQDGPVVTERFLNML

[2] = molecular target: the molecule itself; experiment: SEC-MALS; Superdex-200 10/300 GL, 20 mM Tris-HCl pH 8.0, 200 mM NaCl, 2 mM MgCl2, 1 mM DTT; 3~6 mg/ml injected; with 10 mM L-arginine

N=C(N)NCCC[C@H](N)C(=O)O [L-arginine]
SEC-MALS (trimer to hexamer shift); EMSA (BhArgR (ArgR, Bh2777)): it formed a hexamer in the presence of L-arginine in multi-angle light scattering (MALS) studies

CCCAGAATACGCTAAGACAACTTTCTTTTTGCTCATGCTAACAATCCCTCCAAAGTGAATATTCATACTCTTGTTATTATTTTTATACATCCACTTGCATAAAAAAAGGCCTGTATAAA (double strand) [119-bp cognate argG promoter DNA]
binding [1]: binds

B1: Arginine repressor (ArgR, BH2777) from Bacillus halodurans (natural protein, UniProt Q9K973 1-149, looked up)
chain: MNKGQRHIKIREIIANNDVETQDELVEQLKAAGYNVTQATVSRDIKELHLVKVPMMDGRYKYSLPADQRFNPLQKLKRGLVDSFVSIDRTDNLIVMKTLPGNAHAIGALIDNLDWTEIMGTICGDDTILIICKDKQDGPVVTERFLNML
notes: Arginine repressor ArgR (BH2777), Bacillus halodurans, 149 amino acid residues; Met1, Asp2 and Lys3 were in the crystal but disordered, and the model covers residues 4-149; The tag is named for the SEC-MALS sample; Oligomer: trimer without L-arginine, hexamer with 10 mM L-arginine; also called BhArgR; B. halodurans ArgR; source: overexpressed and purified
stoichiometry N [2]: 6

Reference: publication PMC4865122, “Structural Analysis and Insights into the Oligomeric State of an Arginine-Dependent Transcriptional Regulator from Bacillus halodurans” (PLoS ONE, 2016)
